Source: article PMC12316266, “Biochemical analysis of human eIF4E-DCP2 interaction: Implications for the relationship between translation initiation and decapping”

Tests used:
Dcp2 [1] = molecular target: T1, Dcp2 (Homo sapiens, UniProt Q8IU60 1-420); experiment: MST; no Mg2+; Hill coefficient 1.56 ± 0.49; MST: 100 mM NaCl, 50 mM Tris-Cl pH 7.9, 1 mM DTT, 100 ug/ml BSA, 37 C (10 mM MgCl2 only when stated), 4 nM RNA; EMSA: same buffer plus 5% glycerol, no Mg2+, 24; details: protein: recombinant; tags: His6-protein G-TEV tag, removed by TEV; label: 3' Cy5; single strand
Dcp2 [2] = molecular target: T1, Dcp2; experiment: MST; no Mg2+; RNA pre-incubated with 80 nM eIF4E; Hill coefficient 1.99 ± 0.83; MST: 100 mM NaCl, 50 mM Tris-Cl pH 7.9, 1 mM DTT, 100 ug/ml BSA, 37 C (10 mM MgCl2 only when stated), 4 nM RNA; EMSA: same buffer plus 5% glycerol, no Mg2+, 24; details: protein: recombinant; tags: His6-protein G-TEV tag, removed by TEV; label: 3' Cy5; single strand
eIF4E [3] = molecular target: T2, eIF4E (Homo sapiens, UniProt P06730 1-217); experiment: EMSA; 10 mM MgOAc; 2.5 uM eIF4E; Cy5 label implied; MST: 100 mM NaCl, 50 mM Tris-Cl pH 7.9, 1 mM DTT, 100 ug/ml BSA, 37 C (10 mM MgCl2 only when stated), 4 nM RNA; EMSA: same buffer plus 5% glycerol, no Mg2+, 24; details: protein: recombinant; tags: His6-protein G-TEV tag, removed by TEV; label: 3' Cy5; single strand
T2 sequence (P06730 whole entry): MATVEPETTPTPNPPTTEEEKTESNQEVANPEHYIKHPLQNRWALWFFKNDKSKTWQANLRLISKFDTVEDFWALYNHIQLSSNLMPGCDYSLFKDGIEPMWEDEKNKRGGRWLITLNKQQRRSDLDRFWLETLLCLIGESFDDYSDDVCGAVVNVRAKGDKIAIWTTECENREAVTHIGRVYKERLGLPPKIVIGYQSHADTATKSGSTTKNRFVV

Dcp2 E147Q,E148Q = Dcp2 E147Q,E148Q (Homo sapiens, UniProt Q8IU60 1-420, E147Q;E148Q); experiment: MST; no Mg2+ (implied); MST: 100 mM NaCl, 50 mM Tris-Cl pH 7.9, 1 mM DTT, 100 ug/ml BSA, 37 C (10 mM MgCl2 only when stated), 4 nM RNA; EMSA: same buffer plus 5% glycerol, no Mg2+, 24; details: protein: recombinant; tags: His6-protein G-TEV tag, removed by TEV; label: 3' Cy5; single strand
eIF4E [4] = molecular target: T2, eIF4E; experiment: EMSA; 10 mM MgOAc; 2.5 uM eIF4E; MST: 100 mM NaCl, 50 mM Tris-Cl pH 7.9, 1 mM DTT, 100 ug/ml BSA, 37 C (10 mM MgCl2 only when stated), 4 nM RNA; EMSA: same buffer plus 5% glycerol, no Mg2+, 24; details: protein: recombinant; tags: His6-protein G-TEV tag, removed by TEV; label: 3' Cy5 (implied); single strand
Dcp2 [5] = molecular target: T1, Dcp2; experiment: MST; no Mg2+; Hill coefficient 1.22 ± 0.39; MST: 100 mM NaCl, 50 mM Tris-Cl pH 7.9, 1 mM DTT, 100 ug/ml BSA, 37 C (10 mM MgCl2 only when stated), 4 nM RNA; EMSA: same buffer plus 5% glycerol, no Mg2+, 24; details: protein: recombinant; tags: His6-protein G-TEV tag, removed by TEV; label: 3' Cy5; single strand
eIF4E [6] = molecular target: T2, eIF4E; experiment: EMSA; no Mg2+; 625 nM eIF4E; MST: 100 mM NaCl, 50 mM Tris-Cl pH 7.9, 1 mM DTT, 100 ug/ml BSA, 37 C (10 mM MgCl2 only when stated), 4 nM RNA; EMSA: same buffer plus 5% glycerol, no Mg2+, 24; details: protein: recombinant; tags: His6-protein G-TEV tag, removed by TEV; single strand
Dcp2 [7] = molecular target: T1, Dcp2; experiment: MST; no Mg2+; Hill coefficient 1.89 ± 0.78; MST: 100 mM NaCl, 50 mM Tris-Cl pH 7.9, 1 mM DTT, 100 ug/ml BSA, 37 C (10 mM MgCl2 only when stated), 4 nM RNA; EMSA: same buffer plus 5% glycerol, no Mg2+, 24; details: protein: recombinant; tags: His6-protein G-TEV tag, removed by TEV; label: 3' Cy5; single strand

B1: m7G-capped 43-mer RNA, 3' Cy5 (ssRNA)
RNA: AGGAAAUAAGAGAGAAAAGAAGAGUAAGAAGAAAUAUAAGAGC
modifications: 5' m7GpppAm cap (2'-O-methyl on first A)
apparent K (half saturation) (Dcp2 [1]): 157 ± 26 nM
apparent K (half saturation) (Dcp2 [2]): 72 ± 20 nM
binding result (eIF4E [3]): binds
binding result (Dcp2 E147Q,E148Q): no binding

B2: A-capped 43-mer RNA (ssRNA)
RNA: B1 RNA
modifications: 5' ApppAm cap (2'-O-methyl on first A)
binding result (eIF4E [4]): no binding

B3: 5' triphosphate 43-mer RNA (ssRNA)
RNA: B1 RNA
modifications: 5' triphosphate
apparent K (half saturation) (Dcp2 [5]): 151 ± 29 nM
binding result (eIF4E [3]): no binding

B4: m7G-capped 43-mer RNA, 3' unlabeled (ssRNA)
RNA: B1 RNA
modifications: 5' m7GpppAm cap (2'-O-methyl on first A)
binding result (eIF4E [6]): binds

B5: 5' monophosphate 43-mer RNA (ssRNA)
RNA: B1 RNA
modifications: 5' monophosphate
apparent K (half saturation) (Dcp2 [7]): 96 ± 16 nM
